# In the supplement of paper PMC9170038:
# Assays:
# [1] = test system: MS2 coat protein; test: apparent KD of MS2 coat protein, switch OFF state (with FMN for OFF switches, without FMN for ON switches); designed switch direction (-1 OFF switch, 1 ON switch): -1; higher = weaker reporter binding; details: FMN input: 0 or 200 uM; Eterna round: R93 (includes R88 designs)
# Procedure, shortened: (§1)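 Apparent KD was obtained for each design as the median of normalised binding-curve fits over its clusters. RNA switches transcribed on-chip from Illumina sequencing clusters were titrated with SNAP-549-labelled MS2 coat protein (twofold steps, 0.7 or 1.5 nM to 3 µM) in 100 mM Tris-HCl pH 7.5, 80 mM KCl, 4 mM MgCl2, without or with constant ligand.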
# [2] = test system: MS2 coat protein; test: apparent KD of MS2 coat protein, switch ON state; designed switch direction (-1 OFF switch, 1 ON switch): -1; higher = weaker reporter binding; details: FMN input: 0 or 200 uM; Eterna round: R93 (includes R88 designs)
# Procedure, shortened: as §1
sequence,measurement,setting,value
AGGAAACAUGAGGAUCACCCAUGUAAGGAUAUGAGAAAGAAAAGAAAAGAAAGAAGAAUCAGAAGGUACAAGAA [Semerkhet],apparent KD of MS2 coat protein,[1],89.2 nM
same,apparent KD of MS2 coat protein,[2],34.4 nM
AGGAAACAUGAGGAUCACCCAUGUGAGGAUAUCAGAAAGAAAAGAAAAGAAAGAAGAAUGAGAAGGCACAAGAA [Hotepsekhemwy],apparent KD of MS2 coat protein,[1],40.8 nM
same,apparent KD of MS2 coat protein,[2],26 nM
AGGAAACAUGAGGAUCACCCAUGUGAGGAUAUUGGAAAGAAAAGAAAAGAAAGAAGAAUAAGAAGGCACAAGAA [Merneith],apparent KD of MS2 coat protein,[1],18.2 nM
same,apparent KD of MS2 coat protein,[2],21.8 nM
AGGAUGUCAGGAUAUGUGUAAAGAAUAAAACAAAUAACAACACAGAAGGGACAUGAGGAUCACCCAUGUUAAAA [May 36],apparent KD of MS2 coat protein,[1],54 nM
same,apparent KD of MS2 coat protein,[2],44.9 nM
AGUAUGCGAGGAUAUACAUGAGGAUCACCCAUGUGAGAGAUAUGAGUGAGAAAGACAAGUAGAAGGCGCGUACA [JL Lego Mod 26],apparent KD of MS2 coat protein,[1],11.4 nM
same,apparent KD of MS2 coat protein,[2],99.8 nM
AGUCAUACAGGAUAUACAUGAGGAUCACCCAUGUUUAUCCUAAAAAGGUGAUCCUCAUGUAGAAGGGUAUGACA [EX3 210: Super Stable 10],apparent KD of MS2 coat protein,[1],16.6 nM
same,apparent KD of MS2 coat protein,[2],12.4 nM
AGUUGGCGAGGAUAUACAUGAGGAUCACCCAUGUGAGAAAAAAAAGUGAGAAAGAAAAGUAGAAGGCGCUGACA [Mat - Exclusion 3 - Lego mod - D88],apparent KD of MS2 coat protein,[1],314 nM
same,apparent KD of MS2 coat protein,[2],54.6 nM
AUAAAACAUGAGGAUCACCCAUGUAAGGAUAUGCGAAAAUAAAAUAAAAUAAAAUAAAGCAGAAGGUACAAAAA [Insulation 1],apparent KD of MS2 coat protein,[1],37.3 nM
same,apparent KD of MS2 coat protein,[2],29.1 nM
AUAAACUGAGGAUAUACAUGAGGAUCACCCAUGUAAAAAAAAAAAAGUUCCUCAAAAAGUAGAAGGCAGAAUAA [JR_Exc003_Sub013],apparent KD of MS2 coat protein,[1],19.4 nM
same,apparent KD of MS2 coat protein,[2],13.2 nM
AUAAAGCGAGGAUAUACAUGAGGAUCACCCAUGUAAAUAAAUAGGAGAGCCACAAUAAGUAGAAGGUGCAAUAA [JR_Exc003_Sub008],apparent KD of MS2 coat protein,[1],46.5 nM
same,apparent KD of MS2 coat protein,[2],54.8 nM
AUAAGUCGAGGAUAUACAAAAUGCUAGCGAAAGCUAGCAUAACAUGAGGAUCACCCAUGUAGAAGGCGACAAUA [Tetraloop hairpin BlockHead Variation2],apparent KD of MS2 coat protein,[1],21.3 nM
same,apparent KD of MS2 coat protein,[2],21.7 nM
AUAGGCCUAGGAUAUACAUGAGGAUCACCCAUGUUAAUAAUUCAAACAUGAUAAACGUGUAGAAGGAGGAAUAA [JR_Exc003_Sub302],apparent KD of MS2 coat protein,[1],65.3 nM
same,apparent KD of MS2 coat protein,[2],40.8 nM
AUCAUGUCAGGAUAUCGUGCAGCUACCGAAAGGUAGCUGCACGAGAAGGGACAUGAGGAUCACCCAUGUAUGAA,apparent KD of MS2 coat protein,[1],24.3 nM
same,apparent KD of MS2 coat protein,[2],27.7 nM
AUCGAUCGAGGAUAUACAUGAGGAUCACCCAUGUAAAAAAAAAAAAAGGCCUCAGGAUGUAGAAGGCGACGCAA [JR_Exc003_Sub403],apparent KD of MS2 coat protein,[1],18.7 nM
same,apparent KD of MS2 coat protein,[2],18.5 nM
AUCGUUGGAGGAUAUGCUUGGAAAAAAAAAAAAAAAAAAAAACAUGAGGAUCACCCAUGUAGAAGGUCAAUGGA [Banishment 6 - Jieux - Exclusion 2],apparent KD of MS2 coat protein,[1],30.5 nM
same,apparent KD of MS2 coat protein,[2],49.9 nM
AUGUACCUAGGAUAUACAUGAGGAUCACCCAUGUAUUGGGAGCAAUCCAGUUAAUAUUGUAGAAGGAGGUGAAA [JR_Exc003_Sub317],apparent KD of MS2 coat protein,[1],65 nM
same,apparent KD of MS2 coat protein,[2],38.1 nM
AUUCUACAUGAGGAUCACCCAUGUGAGGAUAUGCUAUACUAUUGUUGCAAUACUUAGAGCAGAAGGCACAUCGU [JR_EXc001_Sub801],apparent KD of MS2 coat protein,[1],66.2 nM
same,apparent KD of MS2 coat protein,[2],30.2 nM
CAAAACAAAGGAUAUAAAACAGAGGAUAUACAUAAAUAAAAACAUGAGGAUCACCCAUGUAGAAGGCUGAAAAC [Meechl Ex2 R2 m3],apparent KD of MS2 coat protein,[1],23 nM
same,apparent KD of MS2 coat protein,[2],21.9 nM
CAAAAGGAAGGAUAUACAUAAUAAAACGGGCGGGCACCUUGACAUGAGGAUCACCCAUGUAGAAGGUCCAAUAA [Ramaanan],apparent KD of MS2 coat protein,[1],18.1 nM
same,apparent KD of MS2 coat protein,[2],16.9 nM
CAAAGGUGAGGAUAUACGAGGAUAUGACGAAAGUCAUAAAAACAUGAGGAUCACCCAUGUAGAAGGCACCACAA [E2 64% 5],apparent KD of MS2 coat protein,[1],32.8 nM
same,apparent KD of MS2 coat protein,[2],27.8 nM
CAGUACUGAGGAUAUACAUGAGGAUCACCCAUGUGAUCAAGCUACGAAAGUAGCACAUGUAGAAGGCAGUACUG [Ex3: 808],apparent KD of MS2 coat protein,[1],19.1 nM
same,apparent KD of MS2 coat protein,[2],24 nM
CAGUACUGAGGAUAUACAUGAGGAUCACCCAUGUGGGAAAGCUACGAAAGUAGCAAAUGUAGAAGGCAGUACUG [Ex3: 805],apparent KD of MS2 coat protein,[1],98.7 nM
same,apparent KD of MS2 coat protein,[2],153 nM
CCCAUGUCAGGAUAUCAGUAGUAAAAAAAAAAAAUUACUACUGAGAAGGGACAUGAGGAUCACCCAUGUACCUU [EX4 319: Super Stable 19],apparent KD of MS2 coat protein,[1],68.1 nM
same,apparent KD of MS2 coat protein,[2],72.1 nM
CCCUAGUCAGGAUAUACAAACAUGUCAAAAGACGUGAAAAAACAUGAGGAUCACCCAUGUAGAAGGGACUAGGG [Mat - Exclusion 2 - JL mod - D19],apparent KD of MS2 coat protein,[1],15.2 nM
same,apparent KD of MS2 coat protein,[2],15.3 nM
CCUAUGUCAGGAUAUCAGUAGUAAAAAAAAAAAAUUACUACUGAGAAGGGACAUGAGGAUCACCCAUGUUCAAA [EX4 313: Super Stable 13],apparent KD of MS2 coat protein,[1],66.4 nM
same,apparent KD of MS2 coat protein,[2],42.4 nM
CCUGUGUGAGGAUAUGGUAAAAAAAAAAAAAAAUAGCUCCUCCAGAAGGCACAUGAGGAUCACCCAUGUCGUGG [Jolly's Folly 16 - Jieux - Exclusion 4],apparent KD of MS2 coat protein,[1],73.9 nM
same,apparent KD of MS2 coat protein,[2],37.6 nM
CUCAAGUAAGGAUAUCGAAGAAAAGAAGAGAAAGAAAAGAACGAGAAGGUACAUGAGGAUCACCCAUGUAAGAA [EteRNA is fun!],apparent KD of MS2 coat protein,[1],28 nM
same,apparent KD of MS2 coat protein,[2],32.4 nM
CUCAAGUAAGGAUAUCUAAGAAAAGAAGAGAAAGAAAAGAAAGAGAAGGUACAUGAGGAUCACCCAUGUAAGAA [EteRNA is fun!],apparent KD of MS2 coat protein,[1],29.9 nM
same,apparent KD of MS2 coat protein,[2],34.4 nM
CUCAAGUAAGGAUAUGAAAGAAAAGAAGAGAAAGAAAAGAAUCAGAAGGUACAUGAGGAUCACCCAUGUAAGAA [EteRNA is fun!],apparent KD of MS2 coat protein,[1],23.1 nM
same,apparent KD of MS2 coat protein,[2],30.3 nM
CUCAAGUAAGGAUAUGCAAGAAAAGAAAAGAAAGAAAAGAAGCAGAAGGUACAUGAGGAUCACCCAUGUAAGAA [EteRNA is fun!],apparent KD of MS2 coat protein,[1],42.3 nM
same,apparent KD of MS2 coat protein,[2],25.4 nM
CUCAUGUGAGGAUAUCAGUAGUAAAAAAAAAAAAUUACUACUGAGAAGGCACAUGAGGAUCACCCAUGUACCUU [EX4 326: Super Stable 26],apparent KD of MS2 coat protein,[1],42.6 nM
same,apparent KD of MS2 coat protein,[2],37.7 nM
